Test results published in PMC2386467.

These sequences were tested against Rap2.6 (Arabidopsis thaliana) (UniProt Q7G1L2) (assay: EMSA). Settings: EMSA: 2.5 ug protein, 20 ng DNA, 0.5x TBE, 20 min room temperature, 6-7% native PAGE, anti-His blot; affinity assay: 2 ug protein, 100 pmol F5, 0.5x TBE, 10 min.
Chain of Rap2.6 (Arabidopsis thaliana) (Q7G1L2 whole entry): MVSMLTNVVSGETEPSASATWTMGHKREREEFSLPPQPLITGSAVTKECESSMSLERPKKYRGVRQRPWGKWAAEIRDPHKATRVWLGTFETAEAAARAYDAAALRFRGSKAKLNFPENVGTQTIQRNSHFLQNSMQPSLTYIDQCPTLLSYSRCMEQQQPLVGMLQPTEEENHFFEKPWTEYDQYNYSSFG

binding, no binding:
AAACCATGGCATGCATAAGAGTCTTGAGCATAATAATGAAACCTGGATTTCCCGGA (double strand) [F1]
AAACCATGGCATGCATAAGAGTCTTGAGCATAATAATGAAACCTGGATTTCCCGGAATAAACAATACATGGAATGTGGGATTCTCAGCTTGAATTTCCATCATCTCCGTCATC (double strand) [F2]
CTCCGGTCACGCGATTCAACTTATATCTTCTCTCAGAACTGTCAACACTTGAAAGGAGAAGATCGAGAGAATTAATGAGACAACAGAGAAACCACTAAAAATCAAAACTTTGCAAAATAAGTGAAGAAGCCTTTTAAAGTAAACCAAGTGAAGAGAG (double strand) [F5]
TCTCCGTCATCGAACTTTGATCACAAATACAAAAAACAAAACAAAAAGTGTAACTATAGTCAAAGAAATTAGAAAATTTCGTAAAAGATTAATGTAACAATACCCAGAAACTCTGC (double strand) [F3]
